The record followed here is paper PMC7086397.

For the assay, the target named is actin filament (UniProt P68135). Briefly: fluorescence microscopy in a microfluidics chamber.

Usually Kd stands for a measure of binding affinity in units of concentration. Higher therefore signals weaker binding.

With “fascin (from UniProt Q16658 1-493) (natural protein)”, the Kd is 75 nM.
